In patent publication US20240279281A1, “Peptide Inhibitors of Interleukin-23 Receptor” (Janssen Pharmaceutica NV, priority 2023, published 2024):
Starred links: 1 amine or outer side, 2 acyl side, 3 side chain; linkers in the order of their positions; H or OH if unused. Positions of bridges follow the written chain, without caps; N, C: chain ends. Non-standard residues stand in square brackets, D forms with d. No end group written: not given here. N,N‑dimethylasparagine = N,N-dimethylasparagine, CN(C)C(=O)C[C@H](N[*:1])C(=O)[*:2]; 2Nal(6-OH) = N[C@@H](Cc1ccc2cc(O)ccc2c1)C(=O)O; Trp(7-Me) = Cc1cccc2c(C[C@H](N)C(=O)O)c[nH]c12; d(hLys(Me3)) = C[N+](C)(C)CCCCC[C@@H](N)C(=O)O; AEF = NCCOc1ccc(C[C@H](N)C(=O)O)cc1; 3Pal = N[C@@H](Cc1cccnc1)C(=O)O; Pen = CC(C)(S)[C@H](N)C(=O)O; lipid = not defined here; Thp = NC1(C(=O)O)CCOCC1; Sar = CNCC(=O)O

B1: SEQ ID NO: 239 (peptide)
peptide: [d(hLys(Me3))][Pen][N,N‑dimethylasparagine]T[Trp(7-Me)]K(lipid)[Pen][AEF][2Nal(6-OH)][Thp]EN[3Pal][Sar]
modifications: disulfide 2-7 (inferred); ends not checked; also: Lys6 lipidated, lipid not given here
B2: SEQ ID NO: 267 (peptide)
peptide: [Pen]NT[Trp(7-Me)]K(Ac)[Pen][2‑amino‑3‑(4-(2-aminoethoxy)phenyl)propanoic acid][2‑amino‑3‑(6-hydroxynaphthalen-2-yl)propanoic acid][Thp]K(Ac)N[3Pal][Sar]K
modifications: disulfide 1-6 (inferred); not fully specified (residue 14); ends not checked; also: K14: lipidated lysine
B3: SEQ ID NO: 244 (peptide)
peptide: R[Pen]NT[Trp(7-Me)]K(Ac)[Pen][AEF][2Nal(6-OH)][Thp]EN[3Pal][Sar]K(lipid)
modifications: disulfide 2-7 (inferred); ends not checked; also: Lys15 lipidated, lipid not given here
B4: SEQ ID NO: 254 (peptide)
peptide: R[Pen]NT[Trp(7-Me)]K(Ac)[Pen][2‑amino‑3‑(4-(2-aminoethoxy)phenyl)propanoic acid][2‑amino‑3‑(6-hydroxynaphthalen-2-yl)propanoic acid][Thp]K(Ac)N[3Pal][Sar]K
modifications: disulfide 2-7 (inferred); not fully specified (residue 15); ends not checked; also: K15: lipidated lysine, lipid not given here
B5: SEQ ID NO: 221 (peptide)
peptide: R[Pen]NT[Trp(7-Me)]K(Ac)[Pen][2‑amino‑3‑(4-(2-aminoethoxy)phenyl)propanoic acid][2‑amino‑3‑(6-hydroxynaphthalen-2-yl)propanoic acid][Thp]K(Ac)N[3Pal][Sar]K(lipid)
modifications: disulfide 2-7 (inferred); ends not checked; also: Lys15 lipidated, lipid not given here
B6: SEQ ID NO: 218 (peptide)
peptide: R[Pen]NT[Trp(7-Me)]K(Ac)[Pen][2‑amino‑3‑(4-(2-aminoethoxy)phenyl)propanoic acid][2‑amino‑3‑(6-hydroxynaphthalen-2-yl)propanoic acid][Thp]EN[3Pal][Sar]K(lipid)
modifications: disulfide 2-7 (inferred); ends not checked; also: Lys15 lipidated, lipid not given here
B7: SEQ ID NO: 214 (peptide)
peptide: [Pen]ET[Trp(7-Me)]K(lipid)[Pen][2‑amino‑3‑(4-(2-aminoethoxy)phenyl)propanoic acid][2‑amino‑3‑(6-hydroxynaphthalen-2-yl)propanoic acid][Thp]K(Ac)N[3Pal][Sar]
modifications: disulfide 1-6 (inferred); ends not checked; also: K5: lipidated lysine, lipid not given here
B8: SEQ ID NO: 241 (peptide)
peptide: [Pen]NT[Trp(7-Me)]K(Ac)[Pen][AEF][2Nal(6-OH)][Thp]K(Ac)N[3Pal][Sar]K(lipid)
modifications: disulfide 1-6 (inferred); ends not checked; also: Lys14 lipidated, lipid not given here
B9: SEQ ID NO: 229 (peptide)
peptide: K(lipid)[Pen]NT[Trp(7-Me)]K(Ac)[Pen][AEF][2Nal(6-OH)][Thp]EN[3Pal][Sar]
modifications: disulfide 2-7 (inferred); ends not checked; also: Lys1 lipidated, lipid not given here
B10: SEQ ID NO: 216 (peptide)
peptide: K(lipid)[Pen]NT[Trp(7-Me)]K(Ac)[Pen][2‑amino‑3‑(4-(2-aminoethoxy)phenyl)propanoic acid][2‑amino‑3‑(6-hydroxynaphthalen-2-yl)propanoic acid][Thp]K(Ac)N[3Pal][Sar]
modifications: disulfide 2-7 (inferred); ends not checked; also: Lys1 lipidated, lipid not given here
B11: SEQ ID NO: 255 (peptide)
peptide: R[Pen]NT[Trp(7-Me)]K(Ac)[Pen][2‑amino‑3‑(4-(2-aminoethoxy)phenyl)propanoic acid][2‑amino‑3‑(6-hydroxynaphthalen-2-yl)propanoic acid][Thp]K(Ac)N[3Pal][Sar]K
modifications: disulfide 2-7 (inferred); not fully specified (residue 15); ends not checked; also: K15: lipidated lysine, lipid not given here
B12: SEQ ID NO: 215 (peptide)
peptide: [Pen]ET[Trp(7-Me)]K(Ac)[Pen][2‑amino‑3‑(4-(2-aminoethoxy)phenyl)propanoic acid][2‑amino‑3‑(6-hydroxynaphthalen-2-yl)propanoic acid][Thp]K(lipid)N[3Pal][Sar]
modifications: disulfide 1-6 (inferred); ends not checked; also: K10: lipidated lysine, lipid not given here
B13: SEQ ID NO: 256 (peptide)
peptide: [Pen]NT[Trp(7-Me)]K(Ac)[Pen][2‑amino‑3‑(4-(2-aminoethoxy)phenyl)propanoic acid][2‑amino‑3‑(6-hydroxynaphthalen-2-yl)propanoic acid][Thp]K(Ac)N[3Pal][Sar]K
modifications: disulfide 1-6 (inferred); not fully specified (residue 14); ends not checked; also: K14: lipidated lysine, lipid not given here

Target: T1, interleukin-23 receptor (IL-23R), Q5VWK5
T1 chain: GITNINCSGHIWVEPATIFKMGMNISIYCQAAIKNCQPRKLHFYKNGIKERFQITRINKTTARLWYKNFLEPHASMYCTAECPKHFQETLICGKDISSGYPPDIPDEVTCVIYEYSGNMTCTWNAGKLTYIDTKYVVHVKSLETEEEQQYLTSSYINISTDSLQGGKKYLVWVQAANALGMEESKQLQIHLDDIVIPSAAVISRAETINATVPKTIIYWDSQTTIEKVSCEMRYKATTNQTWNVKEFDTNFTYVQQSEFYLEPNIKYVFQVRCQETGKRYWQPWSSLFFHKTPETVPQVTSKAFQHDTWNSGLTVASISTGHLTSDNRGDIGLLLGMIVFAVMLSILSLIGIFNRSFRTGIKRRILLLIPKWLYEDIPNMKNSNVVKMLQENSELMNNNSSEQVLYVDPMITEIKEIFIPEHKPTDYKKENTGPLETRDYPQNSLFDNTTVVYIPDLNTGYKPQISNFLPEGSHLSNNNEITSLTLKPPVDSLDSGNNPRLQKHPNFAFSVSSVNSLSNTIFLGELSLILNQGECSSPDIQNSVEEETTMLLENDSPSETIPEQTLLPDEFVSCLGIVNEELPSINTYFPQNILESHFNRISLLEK
Experiment: cell-based or functional assay

Row | Binder | PBMC pSTAT3 IC50
1 | B1 | < 1 nM
2 | B2 | < 1 nM
3 | B3 | < 1 nM
4 | B4 | < 1 nM
5 | B5 | > 1 nM
6 | [(R)‑3‑carboxy‑2‑(4-(((R)-5-carboxy-5-hydrazineylpentyl)amino)-4-oxobutanamido)‑N,N,N‑trimethylpropan‑1‑aminium][Pen]NT[Trp(7-Me)]K(Ac)[Pen][2‑amino‑3‑(4-(2-aminoethoxy)phenyl)propanoic acid][2‑amino‑3‑(6-hydroxynaphthalen-2-yl)propanoic acid][Thp]EN[3Pal][Sar] (disulfide 2-7 (inferred); ends not checked) [SEQ ID NO: 265] | < 1 nM
7 | R[Pen]NT[Trp(7-Me)]K(Ac)[Pen][2‑amino‑3‑(4-(2-aminoethoxy)phenyl)propanoic acid][2‑amino‑3‑(6-hydroxynaphthalen-2-yl)propanoic acid][Thp]EN[3Pal][Sar] (disulfide 2-7 (inferred); ends not checked) [SEQ ID NO: 217] | < 0.1 nM
8 | B6 | > 1 nM
9 | B7 | < 1 nM
10 | B8 | < 1 nM
11 | [(R)‑3‑carboxy‑2‑(4-(((R)-5-carboxy-5-hydrazineylpentyl)amino)-4-oxobutanamido)‑N,N,N‑trimethylpropan‑1‑aminium][Pen]NT[Trp(7-Me)]K(Ac)[Pen][2‑amino‑3‑(4-(2-aminoethoxy)phenyl)propanoic acid][2‑amino‑3‑(6-hydroxynaphthalen-2-yl)propanoic acid][Thp]EN[3Pal][Sar] (disulfide 2-7 (inferred); ends not checked) [SEQ ID NO: 266] | < 0.1 nM
12 | B9 | < 1 nM
13 | [(R)‑3‑carboxy‑2‑(4-(((R)-5-carboxy-5-hydrazineylpentyl)amino)-4-oxobutanamido)‑N,N,N‑trimethylpropan‑1‑aminium][Pen]NT[Trp(7-Me)]K(Ac)[Pen][2‑amino‑3‑(4-(2-aminoethoxy)phenyl)propanoic acid][2‑amino‑3‑(6-hydroxynaphthalen-2-yl)propanoic acid][Thp]EN[3Pal][Sar] (disulfide 2-7 (inferred); ends not checked) [SEQ ID NO: 264] | < 10 pM
14 | B10 | < 0.1 nM
15 | R[Pen]NT[Trp(7-Me)]K(Ac)[Pen][2‑amino‑3‑(4-(2-aminoethoxy)phenyl)propanoic acid][2‑amino‑3‑(6-hydroxynaphthalen-2-yl)propanoic acid][Thp]K(Ac)N[3Pal][Sar] (disulfide 2-7 (inferred); ends not checked) [SEQ ID NO: 220] | < 1 nM
16 | B11 | < 1 nM
17 | B12 | < 0.1 nM
18 | [(R)‑3‑carboxy‑2‑(4-(((R)-5-carboxy-5-hydrazineylpentyl)amino)-4-oxobutanamido)‑N,N,N‑trimethylpropan‑1‑aminium][Pen]NT[Trp(7-Me)]K(Ac)[Pen][2‑amino‑3‑(4-(2-aminoethoxy)phenyl)propanoic acid][2‑amino‑3‑(6-hydroxynaphthalen-2-yl)propanoic acid][Thp]EN[3Pal][Sar] (disulfide 2-7 (inferred); ends not checked) [SEQ ID NO: 263] | < 1 nM
19 | B13 | < 1 nM
